The text below walks through data of patent US20190135911A1, “TREATING RESPIRATORY DISEASES BY TARGETING INTERLEUKIN 4 INDUCED 1 (IL4I1)” (Five Prime Therapeutics, Inc., priority 2016, published 2019).

“Also recorded” adds a separate entry of the source.

This test deals with moDCs in co-culture with bronchial epithelial cells from COPD patients. Nature of the test: moDC / COPD bronchial epithelial cell co-culture treated with IL4I1, DC mRNA levels (Quantigene multiplex panel). The class given is cell-based, human. The following applies: IL4I1 serially diluted into basolateral media; 24 hr BEC pre-incubation, 24 hr co-culture with DCs (COPD donor #AB63); normalized to GAPDH; FIG. 2. From the text: To differentiate airway epithelium in vitro, healthy smoker derived bronchial epithelial cells (Lonza lot #7F3833, 489, 237440, 899; Epithelix lot #13086) and COPD patient derived bronchial epithelial cells (Lonza lot #3313, 498, 3207, 3379; Epithelix lot #AB63, 472) were expanded according to the Lonza protocol with the following modification: the cells were subjected to two passages in Lonza BEBM media with supplements as reported in Widdicombe et al. (BioTechniques 39:249-255, August 2005). Cells were seeded onto collagen coated 0.4 um 96 transwell plates at 15,000 cells per 75 μl of the above media, and 235 μl of the same media was added to the basolateral receiver plate. After 3 days (with a single apical media change of the same volume), the apical media was completely removed in an airlift. To induce differentiation the cells were then cultured for 18 days with PneumaCult-ALI Medium (StemCell Technologies, #05001).
DC were generated as follows. […] After 48 hrs of cell culture, DC were lysed and mRNA levels were measured by microarray. […]
Co-cultures were initiated as described above. […] After 24 hr coculture the DCs were lysed and mRNA levels were measured with an Affymetrix Quantigene multiplex panel on a FlexMap 3D instrument. For each gene the relative luminescence was normalized to a housekeeper gene GAPDH.

B1: IL4I1: Human IL4I1 protein (R&D Systems #5684-AO) added to the co-culture media (protein, UniProt Q96RQ9 22-567, looked up)
L-amino-acid oxidase: QDWKAERSQDPFEKCMQDPDYEQLLKVVTWGLNRTLKPQRVIVVGAGVAGLVAAKVLSDAGHKVTILEADNRIGGRIFTYRDQNTGWIGELGAMRMPSSHRILHKLCQGLGLNLTKFTQYDKNTWTEVHEVKLRNYVVEKVPEKLGYALRPQEKGHSPEDIYQMALNQALKDLKALGCRKAMKKFERHTLLEYLLGEGNLSRPAVQLLGDVMSEDGFFYLSFAEALRAHSCLSDRLQYSRIVGGWDLLPRALLSSLSGLVLLNAPVVAMTQGPHDVHVQIETSPPARNLKVLKADVVLLTASGPAVKRITFSPPLPRHMQEALRRLHYVPATKVFLSFRRPFWREEHIEGGHSNTDRPSRMIFYPPPREGALLLASYTWSDAAAAFAGLSREEALRLALDDVAALHGPVVRQLWDGTGVVKRWAEDQHSQGGFVVQPPALWQTEKDDWTVPYGRIYFAGEHTAYPHGWVETAVKSALRAAIKINSRKGPASDTASPEGHASDMEGQGHVHGVASSPSHDLAKEEGSHPPVQGQLSLQNTTHTRTSH
On to B1, for which the “mRNA expression of dendritic cell genes (CXCL5, PTGES, S100A8, SERPINB2, THBS1)” value was “enhanced mRNA expression; also recorded: further enhances the expression”.
